B1: Example 7: UGT76G1 lysate prepared by pET30a+ plasmid and BL21 (DE3) expression strain (protein, UniProt Q6VAB4 1-458, looked up)
UDP-glycosyltransferase 76G1: MENKTETTVRRRRRIILFPVPFQGHINPILQLANVLYSKGFSITIFHTNFNKPKTSNYPHFTFRFILDNDPQDERISNLPTHGPLAGMRIPIINEHGADELRRELELLMLASEEDEEVSCLITDALWYFAQSVADSLNLRRLVLMTSSLFNFHAHVSLPQFDELGYLDPDDKTRLEEQASGFPMLKVKDIKSAYSNWQILKEILGKMIKQTKASSGVIWNSFKELEESELETVIREIPAPSFLIPLPKHLTASSSSLLDHDRTVFQWLDQQPPSSVLYVSFGSTSEVDEKDFLEIARGLVDSKQSFLWVVRPGFVKGSTWVEPLPDGFLGERGRIVKWVPQQEVLAHGAIGAFWTHSGWNSTLESVCEGVPMIFSDFGLDQPLNARYMSDVLKVGVYLENGWERGEIANAIRRVMVDEEGEYIRQNARVLKQKADVSLMKGGSSYESLESLVSYISSL
modifications: E. coli lysate, pET30a+
notes: UGT76G1 lysate prepared by pET30a+ plasmid and BL21 (DE3) expression strain
B2: Example 8: UGT76G1 lysate prepared by pET30a+ plasmid and Tuner (DE3) expression strain (protein, UniProt Q6VAB4 1-458, looked up)
UDP-glycosyltransferase 76G1: B1 UDP-glycosyltransferase 76G1
modifications: E. coli Tuner (DE3) lysate, pET30a+
notes: UGT76G1 lysate prepared by pET30a+ plasmid and Tuner (DE3) expression strain
B3: Example 10: UGT76G1 lysate prepared by pMAL plasmid and ArcticExpress expression strain (protein, UniProt Q6VAB4 1-458, looked up)
UDP-glycosyltransferase 76G1: B1 UDP-glycosyltransferase 76G1
modifications: E. coli lysate, pMAL
notes: UGT76G1 lysate prepared by pMAL plasmid and ArcticExpress expression strain
B4: Example 9: UGT76G1 lysate prepared by pMAL plasmid and BL21 expression strain (protein, UniProt Q6VAB4 1-458, looked up)
UDP-glycosyltransferase 76G1: B1 UDP-glycosyltransferase 76G1
modifications: E. coli lysate, pMAL vector
notes: UGT76G1 lysate prepared by pMAL plasmid and BL21 expression strain
B5: Example 11: UGT76G1 lysate prepared by pCOLDIII plasmid and ArcticExpress expression strain (protein, UniProt Q6VAB4 1-458, looked up)
UDP-glycosyltransferase 76G1: B1 UDP-glycosyltransferase 76G1
modifications: E. coli ArcticExpress lysate, pCOLDIII
notes: UGT76G1 lysate prepared by pCOLDIII plasmid and ArcticExpress expression strain

Experiment: Transformation of Stevioside to Rebaudioside A with UGT76G1 lysate (Examples 4, 13), HPLC
Assay type: biochemical
Details: per mL of lysate; 1 U transforms 1 μmol in 1 hour at 30° C. and pH 7.2
Method: The total volume of the reaction was 5.0 mL with the following composition: 50 mM sodium phosphate buffer pH 7.2, 3 mM MgCl2, 2.5 mM UDP-glucose, 0.5 mM Stevioside and 500 μl, of UGT76G1 thawed lysate. The reactions were run at 30° C. on an orbitary shaker at 135 rpm. For each sample, 460 μL of the reaction mixture was quenched with 40 μL of 2N H2SO4 and 420 μL of methanol/water (6/4). The samples were immediately centrifuged and kept at 10° C. before analysis by HPLC (CAD).
(§1) Activity tests were performed on a 5 mL scale with 500 μL of thawed lysate for the transformation of Stevioside to Rebaudioside A and Rebaudioside D to Rebaudioside M using 0.5 mM of substrate, 2.5 mM of UDP-Glucose and 3 mM MgCl2 in 50 mM Sodium Phosphate buffer at pH 7.2. Samples were taken and analyzed by HPLC.

Molecule | Transformation activity Stevioside to Rebaudioside A [U mL^−1]
B1 | 29
B2 | 33
B3 | 15
B4 | 20
B5 | 15

Experiment: Transformation of Rebaudioside D to Rebaudioside M with UGT76G1 (Examples 6, 13), HPLC
Assay type: biochemical
Details: per mL of lysate; 1 U transforms 1 μmol in 1 hour at 30° C. and pH 7.2
Method: The total volume of the reaction was 2 mL with the following composition: 50 mM sodium phosphate buffer pH 7.2, 3 mM MgCl2, 3.8 mM UDP-glucose, 0.5 mM Rebaudioside D and 180 μL of in-vitro produced UGT76G1. The reactions were run at 30° C. on an orbitary shaker at 135 rpm. For each sample, 400 μL of reaction mixture was quenched with 40 μL of 2N H2SO4 and 360 μL of 60% MeOH. After centrifugation, the supernatant was analyzed by HPLC (CAD).
as §1

Molecule | Transformation activity Rebaudioside D to Rebaudioside M [U mL^−1]
B1 | 0.31
B2 | 0.40
B3 | 0.25
B4 | 0.15
B5 | 0.11
